T1: Cdc6-1 FL (Methanothermobacter thermautotrophicus, UniProt O27463 1-382)
T1 sequence: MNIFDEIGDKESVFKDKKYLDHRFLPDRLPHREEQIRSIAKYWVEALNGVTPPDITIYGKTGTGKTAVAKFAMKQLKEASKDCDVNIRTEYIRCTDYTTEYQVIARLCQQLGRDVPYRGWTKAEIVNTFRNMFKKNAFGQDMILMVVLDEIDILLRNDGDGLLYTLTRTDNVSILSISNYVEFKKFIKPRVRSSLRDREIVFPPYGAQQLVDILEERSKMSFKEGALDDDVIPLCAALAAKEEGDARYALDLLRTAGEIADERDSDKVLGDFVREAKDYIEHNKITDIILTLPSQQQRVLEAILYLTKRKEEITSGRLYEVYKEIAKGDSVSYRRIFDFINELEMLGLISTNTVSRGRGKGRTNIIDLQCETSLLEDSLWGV

T2: Cdc6-2 FL (Methanothermobacter thermautotrophicus, UniProt O27636 1-379)
T2 sequence: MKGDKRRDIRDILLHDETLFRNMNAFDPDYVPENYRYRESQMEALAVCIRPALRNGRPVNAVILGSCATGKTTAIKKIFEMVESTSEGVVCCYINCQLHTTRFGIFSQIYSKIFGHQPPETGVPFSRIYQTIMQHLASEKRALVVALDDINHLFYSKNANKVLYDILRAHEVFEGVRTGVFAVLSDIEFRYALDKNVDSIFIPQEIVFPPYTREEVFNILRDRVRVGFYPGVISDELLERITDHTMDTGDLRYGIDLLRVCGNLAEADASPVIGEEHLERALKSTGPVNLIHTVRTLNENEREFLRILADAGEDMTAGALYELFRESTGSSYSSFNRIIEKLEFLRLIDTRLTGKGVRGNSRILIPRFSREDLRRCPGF

T3: Cdc6-1 WH (Methanothermobacter thermautotrophicus, UniProt O27463 287-382)
T3 sequence: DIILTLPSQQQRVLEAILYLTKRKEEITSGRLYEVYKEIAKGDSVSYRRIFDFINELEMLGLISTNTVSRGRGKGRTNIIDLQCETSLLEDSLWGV

T4: Cdc6-2 WH (Methanothermobacter thermautotrophicus, UniProt O27636 292-379)
T4 sequence: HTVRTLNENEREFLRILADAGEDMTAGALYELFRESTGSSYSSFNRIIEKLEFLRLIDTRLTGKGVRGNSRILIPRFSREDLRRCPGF

B1: MR163/MR164 45 bp dsDNA (dsDNA)
DNA 1: TACATATGTACATGGGTACATATGTACATGGGTACATATGTACAT
DNA 2: ATGTACATATGTACCCATGTACATATGTACCCATGTACATATGTA

How the values were obtained:
Experiment in all cases: filter binding
[1] = biological target: T1, Cdc6-1 FL
[2] = biological target: T2, Cdc6-2 FL
[3] = biological target: T3, Cdc6-1 WH
[4] = biological target: T4, Cdc6-2 WH

Binder | binding result [1] | binding result [2] | binding result [3] | binding result [4]
TACATATGTACATGGGTACATATGTACATGGGTACATATGTACAT (ssDNA) [MR163 45mer ssDNA] | no binding | binds | – | –
B1 | – | binds | no binding | no binding
